From publication PMC6461443, “Complement C4 Prevents Viral Infection through Capsid Inactivation” (Cell Host & Microbe, 2019)

Biological target: T1, Ad5 hexon, in the virion (human adenovirus 5, UniProt P04133 1-952)
T1 construct: source: in Ad5 (E1/E3 deleted) virions, bought: ViraQuest
Assay: co-IP
Details: both partners purified

T1 sequence (P04133 whole entry): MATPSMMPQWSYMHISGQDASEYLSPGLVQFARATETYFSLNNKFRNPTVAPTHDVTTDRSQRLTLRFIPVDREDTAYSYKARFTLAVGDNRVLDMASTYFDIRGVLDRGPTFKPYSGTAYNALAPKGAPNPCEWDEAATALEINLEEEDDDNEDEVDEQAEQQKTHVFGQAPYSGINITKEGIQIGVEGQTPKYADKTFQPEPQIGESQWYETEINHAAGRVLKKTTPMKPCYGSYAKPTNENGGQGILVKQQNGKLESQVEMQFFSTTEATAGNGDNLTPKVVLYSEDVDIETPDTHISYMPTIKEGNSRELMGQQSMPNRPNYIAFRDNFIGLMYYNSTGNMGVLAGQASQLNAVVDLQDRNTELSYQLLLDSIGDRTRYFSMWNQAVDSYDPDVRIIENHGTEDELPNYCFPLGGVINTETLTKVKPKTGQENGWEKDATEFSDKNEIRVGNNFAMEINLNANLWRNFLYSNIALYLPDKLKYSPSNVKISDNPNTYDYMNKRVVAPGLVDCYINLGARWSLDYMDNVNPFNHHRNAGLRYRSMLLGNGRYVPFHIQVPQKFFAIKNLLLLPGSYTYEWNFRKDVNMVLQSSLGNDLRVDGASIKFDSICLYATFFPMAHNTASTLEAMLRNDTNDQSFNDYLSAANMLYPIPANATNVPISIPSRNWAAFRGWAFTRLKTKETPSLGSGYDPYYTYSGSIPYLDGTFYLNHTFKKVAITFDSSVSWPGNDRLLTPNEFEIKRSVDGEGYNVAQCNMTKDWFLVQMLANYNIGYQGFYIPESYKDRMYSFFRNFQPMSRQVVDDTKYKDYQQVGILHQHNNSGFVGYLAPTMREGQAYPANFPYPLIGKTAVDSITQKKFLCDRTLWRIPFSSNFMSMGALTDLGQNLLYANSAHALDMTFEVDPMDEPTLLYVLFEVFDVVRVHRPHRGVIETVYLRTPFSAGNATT

| Binder | binding result |
| --- | --- |
| Ad5 penton base (natural protein, source: in Ad5 (E1/E3 deleted) virions, bought: ViraQuest) MRRAAMYEEGPPPSYESVVSAAPVAAALGSPFDAPLDPPFVPPRYLRPTGGRNSIRYSELAPLFDTTRVYLVDNKSTDVASLNYQNDHSNFLTTVIQNNDYSPGEASTQTINLDDRSHWGGDLKTILHTNMPNVNEFMFTNKFKARVMVSRLPTKDNQVELKYEWVEFTLPEGNYSETMTIDLMNNAIVEHYLKVGRQNGVLESDIGVKFDTRNFRLGFDPVTGLVMPGVYTNEAFHPDIILLPGCGVDFTHSRLSNLLGIRKRQPFQEGFRITYDDLEGGNIPALLDVDAYQASLKDDTEQGGGGAGGSNSSGSGAEENSNAAAAAMQPVEDMNDHAIRGDTFATRAEEKRAEAEAAAEAAAPAAQPEVEKPQKKPVIKPLTEDSKKRSYNLISNDSTFTQYRSWYLAYNYGDPQTGIRSWTLLCTPDVTCGSEQVYWSLPDMMQDPVTFRSTRQISNFPVVGAELLPVHSKSFYNDQAVYSQLIRQFTSLTHVFNRFPENQILARPPAPTITTVSENVPALTDHGTLPLRNSIGGVQRVTITDARRRTCPYVYKALGIVSPRVLSSRTF | binds |
| Ad5 fiber protein (natural protein, source: in Ad5 (E1/E3 deleted) virions, bought: ViraQuest) MKRARPSEDTFNPVYPYDTETGPPTVPFLTPPFVSPNGFQESPPGVLSLRLSEPLVTSNGMLALKMGNGLSLDEAGNLTSQNVTTVSPPLKKTKSNINLEISAPLTVTSEALTVAAAAPLMVAGNTLTMQSQAPLTVHDSKLSIATQGPLTVSEGKLALQTSGPLTTTDSSTLTITASPPLTTATGSLGIDLKEPIYTQNGKLGLKYGAPLHVTDDLNTLTVATGPGVTINNTSLQTKVTGALGFDSQGNMQLNVAGGLRIDSQNRRLILDVSYPFDAQNQLNLRLGQGPLFINSAHNLDINYNKGLYLFTASNNSKKLEVNLSTAKGLMFDATAIAINAGDGLEFGSPNAPNTNPLKTKIGHGLEFDSNKAMVPKLGTGLSFDSTGAITVGNKNNDKLTLWTTPAPSPNCRLNAEKDAKLTLVLTKCGSQILATVSVLAVKGSLAPISGTVQSAHLIIRFDENGVLLNNSFLDPEYWNFRNGDLTEGTAYTNAVGFMPNLSAYPKSHGKTAKSNIVSQVYLNGDKTKPVTLTITLNGTQETGDTTPSAYSMSFSWDWSGHNYINEIFATSSYTFSYIAQE | binds |
